Laboratory results as given in the supplement of paper PMC10201428.
± gives the standard deviation of the averaged measurements.

Key:
[1] = test system: VchCAST RNA-guided transposition machinery (E. coli BL21(DE3) host, lacZ target); test: relative integration efficiency (T-RL orientation) vs wild-type transposon end (log2 (normalized fold change)); transposon end mutated: right end (5 bp flank + 75 bp right end); higher = more efficient transposition
How it was run: (§1)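 Barcoded pools of 1549 left-end or 1849 right-end transposon variants were cloned into a pUC57 mini-transposon donor. Each pool was co-transformed with a T7-driven effector plasmid (CRISPR array, tniQ-cas8-cas7-cas6, tnsA-tnsB-tnsC) into E. coli BL21(DE3) and plated with 0.1 mM IPTG at 37°C for 18 h. Input plasmids and genomic integration junctions were PCR-amplified and Illumina-sequenced, with two biological output replicates and four wild-type barcodes as reference. Relative integration efficiency is output/input barcode abundance fold change, normalised to wild-type barcodes and log-transformed.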

[2] = test system: VchCAST RNA-guided transposition machinery (E. coli BL21(DE3) host, lacZ target); test: relative integration efficiency (T-LR orientation) vs wild-type transposon end (log2 (normalized fold change)); transposon end mutated: right end (5 bp flank + 75 bp right end); higher = more efficient transposition
How it was run: as §1

ACATTTGTTGATACAACCATAAAATGATAATTACACCCATAAATTGATAATTATCACACCCCGCCCGGTCGCGGTAAGAGGATCATAGTCAGACCAACATTGCTACGACCCGTATTCGCACCGACAC
relative integration efficiency (log2) [1]: -0.532 ± 0.054 | relative integration efficiency (log2) [2]: 2.47 ± 0.19

ACATTTGTTGATACAACCATAAAATGATAATTACACCCATAAATTGATAATTATCACACCGTATAATTGATATTGCCTCTGATCATAGTCAGACCAACATTGCTACGACCCGTATTCGCACCGACAC
relative integration efficiency (log2) [1]: -0.648 ± 0.21 | relative integration efficiency (log2) [2]: 2.25 ± 0.06

ACATTTGTTGATACAACCATAAAATGATAATTACACCCATAAATTGATAATTATCACACCGTTAAATTGATATTGCCTCTGATCATAGTCAGACCAACATTGCTACGACCCGTATTCGCACCGACAC
relative integration efficiency (log2) [1]: -0.625 ± 0.1 | relative integration efficiency (log2) [2]: 1.85 ± 0.26

ACATTTGTTGATACAACCATAAAATGATAATTACACCCATAAATTGATAATTATCACACGGATAAATTGATATTGCCTCTGATCATAGTCAGACCAACATTGCTACGACCCGTATTCGCACCGACAC
relative integration efficiency (log2) [1]: -0.238 ± 0.062 | relative integration efficiency (log2) [2]: 1.28 ± 0.22

ACATTTGTTGATACAACCATAAAATGATAATTACACCCATAAATTGATAATTATCACACGGTAAAATTGATATTGCCTCTGATCATAGTCAGACCAACATTGCTACGACCCGTATTCGCACCGACAC
relative integration efficiency (log2) [1]: -0.357 ± 0.043 | relative integration efficiency (log2) [2]: 2.35 ± 0.067

ACATTTGTTGATACAACCATAAAATGATAATTACACCCATAAATTGATAATTATCACAGGCATAAATTGATATTGCCTCTGATCATAGTCAGACCAACATTGCTACGACCCGTATTCGCACCGACAC
relative integration efficiency (log2) [1]: -0.0803 ± 0.09 | relative integration efficiency (log2) [2]: 0.567 ± 0.2

ACATTTGTTGATACAACCATAAAATGATAATTACACCCATAAATTGATAATTATCACAGGGTTAAATTGATATTGCCTCTGATCATAGTCAGACCAACATTGCTACGACCCGTATTCGCACCGACAC
relative integration efficiency (log2) [1]: -0.425 ± 0.14 | relative integration efficiency (log2) [2]: 2.33 ± 0.045

ACATTTGTTGATACAACCATAAAATGATAATTACACCCATAAATTGATAATTATCACCAAAATAAATTGATATTGCCTCTGATCATAGTCAGACCAACATTGCTACGACCCGTATTCGCACCGACAC
relative integration efficiency (log2) [1]: -0.112 ± 0.18 | relative integration efficiency (log2) [2]: 2.72 ± 0.1

ACATTTGTTGATACAACCATAAAATGATAATTACACCCATAAATTGATAATTATCACCAAACGCCCGGTCGCGGTAAGAGGATCATAGTCAGACCAACATTGCTACGACCCGTATTCGCACCGACAC
relative integration efficiency (log2) [1]: -0.505 ± 0.14 | relative integration efficiency (log2) [2]: 2.47 ± 0.095

ACATTTGTTGATACAACCATAAAATGATAATTACACCCATAAATTGATAATTATCACCACCATAAATTGATATTGCCTCTGATCATAGTCAGACCAACATTGCTACGACCCGTATTCGCACCGACAC
relative integration efficiency (log2) [1]: 0.659 ± 0.12 | relative integration efficiency (log2) [2]: 1.14 ± 0.095

ACATTTGTTGATACAACCATAAAATGATAATTACACCCATAAATTGATAATTATCACCCATAAATTGATATTGCCTCTGATCATAGTCAGACCAACATTGCTACGACCCGTATTCGCACCGACACTG
relative integration efficiency (log2) [1]: -0.448 ± 0.081 | relative integration efficiency (log2) [2]: 2.21 ± 0.045

ACATTTGTTGATACAACCATAAAATGATAATTACACCCATAAATTGATAATTATCACTGCCATAAATTGATATTGCCTCTGATCATAGTCAGACCAACATTGCTACGACCCGTATTCGCACCGACAC
relative integration efficiency (log2) [1]: -0.228 ± 0.042 | relative integration efficiency (log2) [2]: 1.72 ± 0.2

ACATTTGTTGATACAACCATAAAATGATAATTACACCCATAAATTGATAATTATCACTGGGATAAATTGATATTGCCTCTGATCATAGTCAGACCAACATTGCTACGACCCGTATTCGCACCGACAC
relative integration efficiency (log2) [1]: -0.4 ± 0.027 | relative integration efficiency (log2) [2]: 2.07 ± 0.067

ACATTTGTTGATACAACCATAAAATGATAATTACACCCATAAATTGATAATTATCAGTCCCATAAATTGATATTGCCTCTGATCATAGTCAGACCAACATTGCTACGACCCGTATTCGCACCGACAC
relative integration efficiency (log2) [1]: -0.441 ± 0.031 | relative integration efficiency (log2) [2]: 1.51 ± 0.031

ACATTTGTTGATACAACCATAAAATGATAATTACACCCATAAATTGATAATTATCAGTGGCATAAATTGATATTGCCTCTGATCATAGTCAGACCAACATTGCTACGACCCGTATTCGCACCGACAC
relative integration efficiency (log2) [1]: -0.377 ± 0.12 | relative integration efficiency (log2) [2]: 1.86 ± 0.12

ACATTTGTTGATACAACCATAAAATGATAATTACACCCATAAATTGATAATTATCAGTGGGTATTTAACTATAACGCTCTGATCATAGTCAGACCAACATTGCTACGACCCGTATTCGCACCGACAC
relative integration efficiency (log2) [1]: -0.681 ± 0.17 | relative integration efficiency (log2) [2]: 2.65 ± 0.1

ACATTTGTTGATACAACCATAAAATGATAATTACACCCATAAATTGATAATTATCCAACCCATAAATTGATATTGCCTCTGATCATAGTCAGACCAACATTGCTACGACCCGTATTCGCACCGACAC
relative integration efficiency (log2) [1]: -0.362 ± 0.18 | relative integration efficiency (log2) [2]: 0.964 ± 0.12

ACATTTGTTGATACAACCATAAAATGATAATTACACCCATAAATTGATAATTATCCACAAACGCCCGGTCGCGGTAAGAGGATCATAGTCAGACCAACATTGCTACGACCCGTATTCGCACCGACAC
relative integration efficiency (log2) [1]: -0.795 ± 0.075 | relative integration efficiency (log2) [2]: 2.3 ± 0.11

ACATTTGTTGATACAACCATAAAATGATAATTACACCCATAAATTGATAATTATCCACACCATAAATTGATATTGCCTCTGATCATAGTCAGACCAACATTGCTACGACCCGTATTCGCACCGACAC
relative integration efficiency (log2) [1]: -0.495 ± 0.13 | relative integration efficiency (log2) [2]: 0.485 ± 0.4

ACATTTGTTGATACAACCATAAAATGATAATTACACCCATAAATTGATAATTATCCACCCATAAATTGATATTGCCTCTGATCATAGTCAGACCAACATTGCTACGACCCGTATTCGCACCGACACT
relative integration efficiency (log2) [1]: -0.433 ± 0.14 | relative integration efficiency (log2) [2]: 0.607 ± 0.072

ACATTTGTTGATACAACCATAAAATGATAATTACACCCATAAATTGATAATTATCCCACCCCATTTAACTATAACGCTCTGATCATAGTCAGACCAACATTGCTACGACCCGTATTCGCACCGACAC
relative integration efficiency (log2) [1]: -1.3 ± 0.37 | relative integration efficiency (log2) [2]: 2.388 ± 0.023

ACATTTGTTGATACAACCATAAAATGATAATTACACCCATAAATTGATAATTATCTGACCCATAAATTGATATTGCCTCTGATCATAGTCAGACCAACATTGCTACGACCCGTATTCGCACCGACAC
relative integration efficiency (log2) [1]: -0.393 ± 0.12 | relative integration efficiency (log2) [2]: 0.513 ± 0.03

ACATTTGTTGATACAACCATAAAATGATAATTACACCCATAAATTGATAATTATCTGTGCCATAAATTGATATTGCCTCTGATCATAGTCAGACCAACATTGCTACGACCCGTATTCGCACCGACAC
relative integration efficiency (log2) [1]: -0.555 ± 0.23 | relative integration efficiency (log2) [2]: 2.04 ± 0.1

ACATTTGTTGATACAACCATAAAATGATAATTACACCCATAAATTGATAATTATGACACCGAATTTAACTATAACGCTCTGATCATAGTCAGACCAACATTGCTACGACCCGTATTCGCACCGACAC
relative integration efficiency (log2) [1]: -1.22 ± 0.39 | relative integration efficiency (log2) [2]: 2.37 ± 0.096

ACATTTGTTGATACAACCATAAAATGATAATTACACCCATAAATTGATAATTATGTCACCCATAAATTGATATTGCCTCTGATCATAGTCAGACCAACATTGCTACGACCCGTATTCGCACCGACAC
relative integration efficiency (log2) [1]: -0.72 ± 0.15 | relative integration efficiency (log2) [2]: 0.557 ± 0.054

ACATTTGTTGATACAACCATAAAATGATAATTACACCCATAAATTGATAATTATGTGTCCCATAAATTGATATTGCCTCTGATCATAGTCAGACCAACATTGCTACGACCCGTATTCGCACCGACAC
relative integration efficiency (log2) [1]: -0.725 ± 0.24 | relative integration efficiency (log2) [2]: 1.63 ± 0.16

ACATTTGTTGATACAACCATAAAATGATAATTACACCCATAAATTGATAATTCACACCCATAAATTGATATTGCCTCTGATCATAGTCAGACCAACATTGCTACGACCCGTATTCGCACCGACACTG
relative integration efficiency (log2) [1]: -1.06 ± 0.18 | relative integration efficiency (log2) [2]: 1.41 ± 0.045
